Changes are numbered by the printed parent chain. Values belong to the binder of their own block, whether it stands above or below them. Bridge positions count the residues as written; N and C are the ends. Ends that are not written are not given here.
Columns and labels:
Experiment in all cases: cell-based or functional assay
[1] = target: T1, human CRF2α receptor (human) (UniProt Q13324)
T1 sequence: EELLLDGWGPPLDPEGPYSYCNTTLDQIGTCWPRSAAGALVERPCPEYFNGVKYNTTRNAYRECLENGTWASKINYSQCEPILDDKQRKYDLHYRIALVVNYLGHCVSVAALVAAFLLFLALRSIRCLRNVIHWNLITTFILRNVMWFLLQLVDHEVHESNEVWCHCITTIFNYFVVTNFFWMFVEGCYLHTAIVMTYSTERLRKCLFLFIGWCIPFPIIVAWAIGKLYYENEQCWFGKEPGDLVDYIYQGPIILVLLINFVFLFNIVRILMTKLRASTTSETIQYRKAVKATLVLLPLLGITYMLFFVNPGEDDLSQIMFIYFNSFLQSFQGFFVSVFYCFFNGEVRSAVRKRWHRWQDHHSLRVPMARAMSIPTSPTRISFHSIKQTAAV

[2] = target: human CRF1 receptor (human) (UniProt P34998)
rat CRF2β receptor (rat) = target: rat CRF2β receptor (rat)

human CRF1 receptor (human), sequence (P34998 24-415): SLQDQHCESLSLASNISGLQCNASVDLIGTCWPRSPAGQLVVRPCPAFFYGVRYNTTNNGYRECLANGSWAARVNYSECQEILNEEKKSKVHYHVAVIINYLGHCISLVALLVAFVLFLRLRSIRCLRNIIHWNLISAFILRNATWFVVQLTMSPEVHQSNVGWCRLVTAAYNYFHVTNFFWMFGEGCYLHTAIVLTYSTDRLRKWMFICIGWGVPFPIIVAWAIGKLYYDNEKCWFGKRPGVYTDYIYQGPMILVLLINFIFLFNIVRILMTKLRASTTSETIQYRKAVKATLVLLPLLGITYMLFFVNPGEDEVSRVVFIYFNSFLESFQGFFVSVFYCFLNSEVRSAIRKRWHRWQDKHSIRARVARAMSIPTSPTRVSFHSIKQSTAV

B1: AVP (peptide, UniProt P01185 20-28, looked up, species assumed)
Arg-vasopressin: CYFQNCPRG-NH2
modifications: disulfide 1-6; ends not checked
EC50 of adenylate cyclase stimulation (cAMP) [1]: > 1 µM
EC50 of adenylate cyclase stimulation (cAMP) [2]: > 1 µM

B2: Sauvagine (peptide, UniProt P01144 1-40, looked up)
peptide: QGPPISIDLSLELLRKMIEIEKQEKEKQQAANNRLLLDTI
EC50 of adenylate cyclase stimulation (cAMP) [1]: 0.0005 µM
EC50 of adenylate cyclase stimulation (cAMP) [2]: 0.003 µM
EC50 of adenylate cyclase stimulation (cAMP) (rat CRF2β receptor (rat)): 0.0004 µM

B3: deamidated bovine CRF (peptide, UniProt Q95MI6 148-188, looked up)
peptide: SQEPPISLDLTFHLLREVLEMTKADQLAQQAHNNRKLLDIA-OH
EC50 of adenylate cyclase stimulation (cAMP) [1]: > 1 µM
EC50 of adenylate cyclase stimulation (cAMP) [2]: 1 µM

B6: bovine CRF (peptide, UniProt Q95MI6 148-188, looked up)
peptide: SQEPPISLDLTFHLLREVLEMTKADQLAQQAHNNRKLLDIA
EC50 of adenylate cyclase stimulation (cAMP) [1]: 0.1 µM
EC50 of adenylate cyclase stimulation (cAMP) [2]: 0.03 µM

B7: VIP (peptide, UniProt P01282 125-152, looked up, species assumed)
Vasoactive intestinal peptide: HSDAVFTDNYTRLRKQMAVKKYLNSILN
modifications: ends and bridges not checked
EC50 of adenylate cyclase stimulation (cAMP) [1]: > 1 µM
EC50 of adenylate cyclase stimulation (cAMP) [2]: > 1 µM

B10: d-Phe r/hCRF(12-41) (peptide, UniProt P06850 165-194, looked up)
peptide: FHLLREVLEMARAEQLAQQAHSNRKLMEII
modifications: d-Phe (position not given)
EC50 of adenylate cyclase stimulation (cAMP) [1]: > 1 µM
EC50 of adenylate cyclase stimulation (cAMP) [2]: > 1 µM

Now from value to binder:

EC50 of adenylate cyclase stimulation (cAMP) [1]: 0.02 µM
EC50 of adenylate cyclase stimulation (cAMP) [2]: 0.004 µM
EC50 of adenylate cyclase stimulation (cAMP) (rat CRF2β receptor (rat)): 0.001 µM
B4: rat/human CRF (peptide, UniProt P06850 154-194, looked up)
peptide: SEEPPISLDLTFHLLREVLEMARAEQLAQQAHSNRKLMEII

EC50 of adenylate cyclase stimulation (cAMP) [1]: 0.08 µM
EC50 of adenylate cyclase stimulation (cAMP) [2]: 0.01 µM
B5: ovine CRF (peptide, UniProt P01142 148-188, looked up)
Corticoliberin: B6 peptide with N33S
modifications: ends and bridges not checked

EC50 of adenylate cyclase stimulation (cAMP) [1]: > 1 µM
EC50 of adenylate cyclase stimulation (cAMP) [2]: > 1 µM
B8: hGRF (peptide, UniProt P01286 32-75, looked up)
peptide: YADAIFTNSYRKVLGQLSARKLLQDIMSRQQGESNQERGARARL
modifications: ends and bridges not checked

EC50 of adenylate cyclase stimulation (cAMP) [1]: > 1 µM
EC50 of adenylate cyclase stimulation (cAMP) [2]: > 1 µM
B9: r/hCRF(6-33) (peptide, UniProt P06850 159-186, looked up)
peptide: ISLDLTFHLLREVLEMARAEQLAQQAHS

— patent US6723841
